From patent publication US20260209346A1 (LTZ THERAPEUTICS, published 2026)

How the values were obtained:
[1] = target: CD79b endogenously expressed on the cell surface (malignant B cell lines, normal B cells in PBMC, CLL patients' B lymphocytes) (human) (UniProt P40259); experiment: flow cytometry on BJAB cells; anti-human IgG1-PE; MFI (PE); table under the graph; fit of a flat control curve
[2] = target: CD79b endogenously expressed on the cell surface (malignant B cell lines, normal B cells in PBMC, CLL patients' B lymphocytes) (human) (UniProt P40259); experiment: flow cytometry on Nalm-6 cells; anti-human IgG1-PE; MFI (PE); table under the graph; fit of a flat control curve
[3] = target: CD79b endogenously expressed on the cell surface (malignant B cell lines, normal B cells in PBMC, CLL patients' B lymphocytes) (human) (UniProt P40259); experiment: flow cytometry on SU-DHL-4 cells; anti-human IgG1-PE; MFI (PE); table under the graph; fit of a flat control curve
[4] = target: CD79b endogenously expressed on the cell surface (malignant B cell lines, normal B cells in PBMC, CLL patients' B lymphocytes) (human) (UniProt P40259); experiment: flow cytometry on Ramos cells; anti-human IgG1-PE; MFI (PE); table under the graph; fit of a flat control curve
[5] = target: CD79b endogenously expressed on the cell surface (malignant B cell lines, normal B cells in PBMC, CLL patients' B lymphocytes) (human) (UniProt P40259); experiment: flow cytometry on PBMC of Donor 2890, B cells marked with CD19-BV421; anti-human IgG1-PE; MFI (PE); table under the graph; fit of a flat control curve
[6] = target: CD79b endogenously expressed on the cell surface (malignant B cell lines, normal B cells in PBMC, CLL patients' B lymphocytes) (human) (UniProt P40259); experiment: flow cytometry quadrant plot, untransfected NALM6 cells; Anti-CD79b-PE against Anti-IgM-APC
[7] = target: T1, human CD79b recombinant protein (human, UniProt P40259 29-159); experiment: ELISA on recombinant human CD79b ECD; A 450nm
T1 construct: also called human CD79b ECD antigen; recombinant human CD79b ECD
T1 sequence: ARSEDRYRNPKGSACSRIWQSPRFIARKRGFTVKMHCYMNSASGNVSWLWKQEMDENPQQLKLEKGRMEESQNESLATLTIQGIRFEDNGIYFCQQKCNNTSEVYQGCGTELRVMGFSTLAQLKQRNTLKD

[8] = target: T2, CD79b endogenously expressed on the cell surface (malignant B cell lines, normal B cells in PBMC, CLL … (human, UniProt P40259 29-229)); experiment: flow cytometry on PBMC of Donor 2235, B cells marked with CD19-BV421; anti-human IgG1-PE; MFI (PE); table under the graph
T2 construct: whole, on cells; On cells CD79b stands in the B-cell receptor complex with CD79a and surface Ig; also called cell surface CD79b; endogenous CD79b
T2 sequence (looked up): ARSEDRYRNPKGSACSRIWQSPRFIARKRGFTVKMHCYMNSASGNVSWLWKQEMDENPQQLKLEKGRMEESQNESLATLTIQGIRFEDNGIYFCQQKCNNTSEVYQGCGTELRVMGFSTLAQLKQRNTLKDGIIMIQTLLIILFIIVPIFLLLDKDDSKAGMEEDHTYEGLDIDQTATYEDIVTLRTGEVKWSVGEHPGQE
Description: (§1) The binding affinities of anti-CD79b antibodies to endogenous B cells were tested. […] The cells were then incubated with […] mixture of anti-human IgG1-PE (Invitrogen, Cat #: 12-4998-82), 1:1000 dilution; CD19-BV421 (Biolegend, Cat #:302230, 1:400 dilution) for 30 min on ice, and washed with 200 ul PBS for three times before flow cytometry analysis.

[9] = target: T2, CD79b endogenously expressed on the …; experiment: flow cytometry on PBMC of Donor 356, B cells marked with CD19-BV421; anti-human IgG1-PE; MFI (PE); table under the graph (the graph's legend prints ch44D2)
Description: as §1

[10] = target: T2, CD79b endogenously expressed on the …; experiment: flow cytometry on PBMC of Donor 2890, B cells marked with CD19-BV421; anti-human IgG1-PE; MFI (PE); table under the graph
Description: as §1

[11] = target: T2, CD79b endogenously expressed on the …; experiment: flow cytometry on Daudi cells; anti-human IgG1-PE; MFI (PE); table under the graph
Description: (§2) The binding affinities of anti-CD79b antibodies to malignant B cell lines were tested. […] The cells were then incubated with 100 μl anti-human IgG1-PE (Invitrogen, cat: 12-4998-82), 1:1000 dilution, for 30 min on ice, washed with 200 ul PBS for three times before flow cytometry analysis.

[12] = target: T2, CD79b endogenously expressed on the …; experiment: flow cytometry on PBMC of Donor 889, B cells marked with CD19-BV421; anti-human IgG1-PE; MFI (PE); table under the graph
Description: as §1

[13] = target: T1, human CD79b recombinant protein; experiment: ELISA, coated human CD79b recombinant protein
Description: (§3) Binding affinities of anti-CD79b antibodies to human and cynomolgus CD79b recombinant proteins were tested by ELISA. 1 ug/ml (in PBS buffer) of human or cynomolgus CD79b recombinant proteins were coated on an ELISA plate overnight. ELISA plates were washed and blocked with blocking buffer (PBS+1% BSA) followed by incubation with serially diluted anti-CD79b primary antibodies. Anti-CD79b antibody binding was quantified using an anti-human IgG HRP secondary antibody (Biolegend Catalog #410902) and HRP substrate.

[14] = target: T2, CD79b endogenously expressed on the …; experiment: flow cytometry on Nalm-6 cells; anti-human IgG1-PE; MFI (PE); table under the graph
Description: as §2

[15] = target: T2, CD79b endogenously expressed on the …; experiment: flow cytometry on a cell line expressing endogenous CD79b (not named on the sheet or in the text); MFI (PE)
[16] = target: T2, CD79b endogenously expressed on the …; experiment: flow cytometry on BJAB cells; anti-human IgG1-PE; MFI (PE); table under the graph
Description: as §2

[17] = target: T2, CD79b endogenously expressed on the …; experiment: flow cytometry on Ramos cells; anti-human IgG1-PE; MFI (PE); table under the graph
Description: as §2

[18] = target: T2, CD79b endogenously expressed on the …; experiment: flow cytometry on PBMC of CLL Donor 0255 (B lymphocytes); PE goat anti-human IgG Fc; MFI PE
Description: To determine the binding affinities of the anti-CD79b antibodies to cell surface CD79b on Chronic Lymphocytic Leukemia (CLL) patient's B lymphocytes, a cell-based binding assay was conducted. […] CLL patient PBMCs were purchased from the company Bioscience. […] Specifically, 2.5×10⁴ PBMC cells in 50 μl FACS buffer (1×PBS+2% BSA+2 mM EDTA) were seeded in each well of a V bottom 96-well plate. […] The mixture was incubated on ice for 30 minutes, and then washed twice with FACS buffer. The cells were re-suspended in 100 μl FACS buffer containing PE conjugated goat anti-human IgG Fc (1:1000) and anti-human CD19 (BV421), and incubated for 30 minutes on ice in darkness. After washing twice with FACS buffer, the cells were re-suspended in 100 μl of FACS buffer and analyzed with a Cytek cytometer.

[19] = target: T3, cynomolgus CD79b recombinant protein (cynomolgus); experiment: ELISA, coated cynomolgus CD79b recombinant protein
T3 chain: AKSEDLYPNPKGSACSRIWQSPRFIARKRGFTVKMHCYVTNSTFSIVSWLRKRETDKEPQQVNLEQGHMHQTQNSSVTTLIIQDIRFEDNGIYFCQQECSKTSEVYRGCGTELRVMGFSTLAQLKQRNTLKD
Description: as §3

[20] = target: T2, CD79b endogenously expressed on the …; experiment: flow cytometry on SU-DHL-4 cells; anti-human IgG1-PE; MFI (PE); table under the graph
Description: as §2

[21] = target: T2, CD79b endogenously expressed on the …; experiment: flow cytometry on PBMC of Donor 356, B cells marked with CD19-BV421; anti-human IgG1-PE; MFI (PE); table under the graph
Description: as §1

[22] = target: T1, human CD79b recombinant protein; experiment: BLI, antibody captured on anti-human IgG Fc probes, human CD79b in solution, 1:1 model
Description: (§4) Binding affinities of anti-CD79b antibodies to human CD79b recombinant proteins were tested by BLI. 10 ug/ml of anti-CD79b antibodies were captured by anti-human IgG Fc probes (Gator Bio Catalog #160024). […] Absolute kD was determined by applying a 1:1 binding model (Global Rmax unlinked).

[23] = target: T1, human CD79b recombinant protein; experiment: BLI; antibody at 10 ug/ml captured on anti-human IgG Fc probes, hCD79b in solution; same value printed in the rows for 18.3 and 9.14 nM hCD79b
Description: as §4

[24] = target: T1, human CD79b recombinant protein; experiment: BLI; antibody at 10 ug/ml captured on anti-human IgG Fc probes, hCD79b in solution; row for 9.14 nM hCD79b

Q: What does the source list for IgG1 control (antibody)?
A: EC50 [1]: 0.04 nM; EC50 [2]: 8.17 nM; EC50 [3]: 0.17 nM; EC50 [4]: 0.01 nM; EC50 [5]: 0.163 nM

Q: With Isotype (antibody) as the molecule, how does the Q3 (percent of cells Anti-CD79b-PE positive, Anti-IgM-APC negative) [6] read?
A: 1.16

B1: ch44G2 (antibody, human IgG1, kappa, V domains shown)
VH: QSVRETGGGLVQPGGSLKLSCKASGFTINIDYWISWVRQAPGKGLEWIGIIDPGDGTTYFAIWVSGRFTISFDNTQNTVDLQMNSLTAADTATYFCVREFSASAYQYDLWGPGTLVTVSS
VL: DLVMTQTPSSVSAAVGGTVSINCRASEDIENYLAWYQQKPGQPPKLLIYRASTLSSGVSSRFSGSGSGTEFTLTISGVQPDDAATYYCQQGYRNSNVDNPFGGGTEMVVKR
notes: Rabbit/human chimeric IgG1 kappa; also called chimeric 44G2
Q: B1 was tested. Which “EC50 (read off the curve)” value [7] did it give?
A: ~0.5 nM

Q: And the EC50 [8]?
A: 0.727 nM

Q: What about the EC50 [9] of the same molecule?
A: 0.357 nM

Q: And the EC50 [10]?
A: 0.675 nM

Q: What about the EC50 [11] of the same molecule?
A: 0.79 nM

Q: What about the EC50 [12] of the same molecule?
A: 0.0955 nM

Q: And the IC50 [13]?
A: 0.63 nM

Q: What about the EC50 [14] of the same molecule?
A: 1.59 nM

Q: What about the “EC50 (read off the curve)” value [15] of the same molecule?
A: ~0.2 nM

Q: And the EC50 [16]?
A: 0.67 nM

Q: What about the EC50 [17] of the same molecule?
A: 0.86 nM

Q: What about the “EC50 (read off the curve)” value [18] of the same molecule?
A: ~0.8 nM

Q: And the IC50 [19]?
A: 3 nM

Q: What about the EC50 [20] of the same molecule?
A: 0.72 nM

B2: ch23D8 (antibody, human IgG1, kappa, V domains shown)
VH: QSLEESGGGLVTPGGTLTLTCTVSGLSLSSNAINWVRQAPGKGLEWIGMIYSGGRIEYASWAKGRFTISKTSTTVDLKITSPTTEDTATYFCAKGMSPSAHSSDIWGPGTLVTVSA
VL: AYDMTQTPASVEVAVGGTVTIKCQASQSISDNLSWYQQKPGQPPKLLIYDASDLASGVPSRFSGSGSGTEFTLTISDLEPADAATYYCQQDWISSNVDNTFGGGTEVVVKR
notes: Rabbit/human chimeric IgG1 kappa; also called chimeric 23D8
Q: Which “EC50 (read off the curve)” value [7] does the source give for B2 here?
A: ~0.1 nM

Q: And the EC50 [21]?
A: 0.225 nM

Q: What about the EC50 [8] of the same molecule?
A: 0.921 nM

Q: And the EC50 [10]?
A: 1.05 nM

Q: And the EC50 [11]?
A: 1.08 nM

Q: What about the EC50 [12] of the same molecule?
A: 0.15 nM

Q: And the IC50 [13]?
A: 0.33 nM

Q: What about the Kd [22] of the same molecule?
A: 0.32 nM

Q: And the EC50 [14]?
A: 4.58 nM

Q: And the “EC50 (read off the curve)” value [15]?
A: ~0.3 nM

Q: And the EC50 [16]?
A: 1.06 nM

Q: And the EC50 [17]?
A: 1.4 nM

Q: What about the “EC50 (read off the curve)” value [18] of the same molecule?
A: ~0.9 nM

Q: And the koff [23]?
A: 7.85e-05 s⁻¹

Q: What about the kon [23] of the same molecule?
A: 245000 M⁻¹ s⁻¹

Q: What about the IC50 [19] of the same molecule?
A: 0.57 nM

Q: What about the EC50 [20] of the same molecule?
A: 0.93 nM

B3: polatuzumab (antibody, V domains shown)
VH: EVQLVESGGGLVQPGGSLRLSCAASGYTFSSYWIEWVRQAPGKGLEWIGEILPGGGDTNYNEIFKGRATFSADTSKNTAYLQMNSLRAEDTAVYYCTRRVPIRLDYWGQGTLVTVSS
VL: DIQLTQSPSSLSASVGDRVTITCKASQSVDYEGDSFLNWYQQKPGKAPKLLIYAASNLESGVPSRFSGSGSGTDFTLTISSLQPEDFATYYCQQSNEDPLTFGQGTKVEIKR
Q: With B3 as the molecule, how does the EC50 [21] read?
A: 0.238 nM

Q: And the EC50 [8]?
A: 1.98 nM

Q: What about the EC50 [10] of the same molecule?
A: 1.56 nM

Q: And the EC50 [11]?
A: 2.24 nM

Q: And the EC50 [12]?
A: 0.153 nM

Q: What about the IC50 [13] of the same molecule?
A: 0.19 nM

Q: What about the EC50 [14] of the same molecule?
A: 7.85 nM

Q: What about the EC50 [16] of the same molecule?
A: 1.26 nM

Q: What about the EC50 [17] of the same molecule?
A: 1.78 nM

Q: What about the “EC50 (read off the curve)” value [18] of the same molecule?
A: ~0.9 nM

Q: What about the Kd [24] of the same molecule?
A: 0.417 nM

Q: And the EC50 [20]?
A: 1.44 nM
